Source: IntAct's records for PubMed 31142615

B1: E3 ubiquitin-protein ligase MARCHF2 (Homo sapiens), Q9P0N8 (parent)
chain: MTTGDCCHLPGSLCDCSGSPAFSKVVEATGLGPPQYVAQVTSRDGRLLSTVIRALDTPSDGPFCRICHEGANGECLLSPCGCTGTLGAVHKSCLEKWLSSSNTSYCELCHTEFAVEKRPRPLTEWLKDPGPRTEKRTLCCDMVCFLFITPLAAISGWLCLRGAQDHLRLHSQLEAVGLIALTIALFTIYVLWTLVSFRYHCQLYSEWRKTNQKVRLKIREADSPEGPQHSPLAAGLLKKVAEETPV

Variants of: B1
Details: with ergi3_human ERGIC3, Q9Y282
Sequence of ergi3_human ERGIC3, Q9Y282 (Q9Y282 whole entry): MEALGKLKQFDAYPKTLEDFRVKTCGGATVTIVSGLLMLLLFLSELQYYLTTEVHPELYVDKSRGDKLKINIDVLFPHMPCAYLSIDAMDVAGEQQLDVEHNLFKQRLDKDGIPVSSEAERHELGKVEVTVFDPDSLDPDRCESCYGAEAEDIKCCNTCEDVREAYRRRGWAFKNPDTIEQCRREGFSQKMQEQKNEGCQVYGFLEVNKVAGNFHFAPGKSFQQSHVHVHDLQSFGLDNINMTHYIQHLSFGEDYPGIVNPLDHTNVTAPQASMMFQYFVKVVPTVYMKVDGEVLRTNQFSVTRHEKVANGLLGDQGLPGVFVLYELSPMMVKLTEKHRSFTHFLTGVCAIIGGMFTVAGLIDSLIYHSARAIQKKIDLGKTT

Variant	effect of a mutation on the interaction
MTTGDCCHLPGSLCDCSGSPAFSKVVEATGLGPPQYVAQVTSRDGRLLSTVIRALDTPSDGPFSRISHEGANGECLLSPCGCTGTLGAVHKSCLEKWLSSSNTSYCELCHTEFAVEKRPRPLTEWLKDPGPRTEKRTLCCDMVCFLFITPLAAISGWLCLRGAQDHLRLHSQLEAVGLIALTIALFTIYVLWTLVSFRYHCQLYSEWRKTNQKVRLKIREADSPEGPQHSPLAAGLLKKVAEETPV [C64S;C67S]	decreasing interaction strength

Variants of: B1
Details: with ergi3_human ERGIC3, Q9Y282
Remark: another data set of the same source

Variant	effect of a mutation on the interaction
MTTGDCCHLPGSLCDCSGSPAFSKVVEATGLGPPQYVAQVTSRDGRLLSTVIRALDTPSDGPFSRISHEGANGECLLSPCGCTGTLGAVHKSCLEKWLSSSNTSYCELCHTEFAVEKRPRPLTEWLKDPGPRTEKRTLCCDMVCFLFITPLAAISGWLCLRGAQDHLRLHSQLEAVGLIALTIALFTIYVLWTLVSFRYHCQLYSEWRKTNQKVRLKIREADSPEGPQHSPLAAGLLKKVAEETPV [C64S;C67S]	with no effect

Variants of: B1
Details: with ergi3_human ERGIC3, Q9Y282
Remark: another data set of the same source

Variant	effect of a mutation on the interaction
MTTGDCCHLPGSLCDCSGSPAFSKVVEATGLGPPQYVAQVTSRDGRLLSTVIRALDTPSDGPFSRISHEGANGECLLSPCGCTGTLGAVHKSCLEKWLSSSNTSYCELCHTEFAVEKRPRPLTEWLKDPGPRTEKRTLCCDMVCFLFITPLAAISGWLCLRGAQDHLRLHSQLEAVGLIALTIALFTIYVLWTLVSFRYHCQLYSEWRKTNQKVRLKIREADSPEGPQHSPLAAGLLKKVAEETPV [C64S;C67S]	causing an interaction
